Substrate in the data set: Cc1cc(=O)oc2cc(NC(=O)CC[C@H](N)C(=O)O)ccc12
Description: Hydrolytic assay of E. coli GGT (Michaelis constant of substrate). The class given is biochemical, Escherichia coli K-12. The settings on record: other: E. coli GGT, pH 5.5, 25° C. The procedure: In the experiment, at first, Michaelis constants (Km) for 7-(γ-L-glutamylamino)-4-methylcoumarin as substrate were measured by a fluorescence method [Smith, G. D.; Ding, J. L.; Peters, T. J. Anal. Biochem. 100, 136-139 (1979)] for the hydrolytic activities of E-coli GGT and human GGT.
In the hydrolytic assay of E. coli GGT, 10 μL of a […] enzyme solution was added to a 100 mM succinic acid-sodium hydroxide buffer solution (pH 5.5) in a total volume of 1 mL containing 100 μL of 2 μM substrate aqueous solution. The product, 7-amino-4-methylcoumarin (AMC), released along with the enzyme reaction was traced continuously at 25° C. using a fluorospectrophotometer F-2000 manufactured by Hitachi Ltd. (excitation wavelength: 350 nm, emission wavelength: 440 nm). The AMC concentration was separately measured by forming a calibration curve showing the relation of the fluorescence intensity (F) and the concentration (C) using standard solutions and was calculated from the relational expression (1) of the fluorescence intensity alteration (ΔF) and concentration alteration (ΔC).
[Expression 1] ΔF/ΔC=0.11 nM^−1 (1)
The fluorescence intensity was proportional to the AMC concentration up to 2.0 μM. As a result, Km value for 7-(γ-L-glutamylamino)-4-methylcoumarin was 0.2 μM under this condition.

B1: E. coli GGT (Escherichia coli K-12) (protein)
chain 1: APPAPPVSYGVEEDVFHPVRAKQGMVASVDATATQVGVDILKEGGNAVDAAVAVGYALAVTHPQAGNLGGGGFMLIRSKNGNTTAIDFREMAPAKATRDMFLDDQGNPDSKKSLTSHLASGTPGTVAGFSLALDKYGTMPLNKVVQPAFKLARDGFIVNDALADDLKTYGSEVLPNHENSKAIFWKEGEPLKKGDTLVQANLAKSLEMIAENGPDEFYKGTIAEQIAQEMQKNGGLITKEDLAAYKAVERTPISGDYRGYQVYSMPPPSSGGIHIVQILNILENFDMKKYGFGSADAMQIMAEAEKYAYADRSEYLGDPDFVKVPWQALTNKAYAKSIADQIDINKAKPSSEIRPGKLAPYESNQ
chain 2: TTHYSVVDKDGNAVAVTYTLNTTFGTGIVAGESGILLNNQMDDFSAKPGVPNVYGLVGGDANAVGPNKRPLSSMSPTIVVKDGKTWLVTGSPGGSRIITTVLQMVVNSIDYGLNVAEATNAPRFHHQWLPDELRVEKGFSPDTLKLLEAKGQKVALKEAMGSTQSIMVGPDGELYGASDPRSVDDLTAGY
notes: was used as a purified enzyme of E-coli GGT; made in house
As usually defined, the Km is the concentration of substrate that gives half-maximal velocity. On to B1, for which the Km came to 0.2 µM.

Values taken from patent publication US8129557B2, “Phosphonic acid diester derivative and method for producing thereof” (priority 2005, dated 2012).
